From US20170028070A1

Tested on: HER2 epitope peptide
Settings: 5'-H2N-(CH2)6; doxorubicin intercalated, Dox:aptamer 10:1; apparent Kd from doxorubicin fluorescence release upon epitope binding; Dox molar ratio 10

“AACCGCCCAAATCCCTAAGAGTCTGCACTTGTCATTTTGTATATGTATTTGGTTTTTGGCTCTCACAGACACACTACACACGCACA [Dox-loaded anti-HER2 aptamer]” was tested, and the Kd was 50 nM.
